In paper PMC3047542, “Structure of HsdS Subunit from Thermoanaerobacter tengcongensis Sheds Lights on Mechanism of Dynamic Opening and Closing of Type I Methyltransferase” (PLoS ONE, 2011):

Target: T1, TTE-HsdS (wild type), specificity subunit of the type I methyltransferase from Thermoanaerobacter … (Thermoanaerobacter tengcongensis, UniProt Q8R9Q6 1-398)
T1 construct: HsdS specificity subunit of Thermoanaerobacter tengcongensis, ORF TTE1545, wild type; 398 amino acids (Met1-Leu398), MW 46.5 kDa; Cloned into site 1 of pET-DUET (with N-terminal His tag); source: E. coli BL21 (DE3), co-expressed with TTE-HsdM (wild type or mutant) from pET-DUET; not shown: His tag, N-terminal, kept
T1 sequence (looked up): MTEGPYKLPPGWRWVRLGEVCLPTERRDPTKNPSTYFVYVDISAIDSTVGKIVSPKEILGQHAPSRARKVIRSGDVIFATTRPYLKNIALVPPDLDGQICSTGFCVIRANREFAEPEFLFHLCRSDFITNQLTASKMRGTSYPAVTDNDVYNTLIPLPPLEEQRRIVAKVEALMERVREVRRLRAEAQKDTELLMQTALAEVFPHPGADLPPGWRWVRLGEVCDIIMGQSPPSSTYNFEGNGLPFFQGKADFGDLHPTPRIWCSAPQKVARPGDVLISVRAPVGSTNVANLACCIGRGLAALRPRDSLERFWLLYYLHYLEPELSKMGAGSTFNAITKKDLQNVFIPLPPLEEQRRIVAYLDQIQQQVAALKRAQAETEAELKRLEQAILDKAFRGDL
Test: AUC; analytical ultracentrifugation of the co-purified wild-type TTE-HsdS/TTE-HsdM complex; molecular weight 165 kDa
Conditions: both partners purified

stoichiometry N: 2 HsdM per HsdS
B1: TTE-HsdM (wild type), modification subunit of the type I methyltransferase from Thermoanaerobacter tengcongensis (natural protein, UniProt Q8R9Q4 1-507, looked up)
chain: MNGPQTRESLANEIWRACDIMRRDNNCTGIMEYVEHLAWLLFLRFLDAQEEEWEAQAQIAGRPYTPIIDSEYRWRHWATKDWPADELLAFVHGRLIPYLRSLGGDPLRETIRSLFSERNVIVCASGYNLKDVIQIVNEINFHSQDDIFTVSQVYEELLRRLGNENRLAGEFYTPRPVVRFVVELVDPQIGEAVYDPACGTCGFLVEAYLWMKQKERTIEDHRILQERTFFGQEKKPVPAFLGLVNMMLHGVTVPRVMRRNTLEENIRNVSERFDVVVTNPPFGGTEGRHIQQNFPIQSNATELLFLQHIMKKLKPRDGARCGMVVPEGTLFRGGAFAEVKRDLLEQFNLHTVVSLPPGTFAPYSDVKTALIFFERPGPTKEIWYYELPLPEGLKKFSKGNPIQDEHFEEARKLWRGWDAYRKGLGPVEACLSERSWIVPVEEVKKRGYDLTARNPNRSGGEELPSPVEIVAGLLEKEREILSIMEELSELLENEKGNSSRKNDEEEE
notes: HsdM modification subunit of Thermoanaerobacter tengcongensis, ORF TTE1547, wild type; MW 58.5 kDa; Cloning site 2 of pET-DUET, without tag; Two copies in the M2S1 complex; Expressed alone it was insoluble
